Source: US20130101595A1 (AbbVie / Abbott, published 2013)

T1: IL-18 peptide NRPLFEDMTDSDCR (SEQ ID NO: 36) (human)
T1 peptide: NRPLFEDMTDSDCR

T2: IL-18 peptide PLFEDMTDSDCRDNA (SEQ ID NO: 1) (human)
T2 peptide: PLFEDMTDSDCRDNA


Legend:
[1] = molecular target: T1, IL-18 peptide NRPLFEDMTDSDCR (SEQ ID …); assay: overlapping IL-18 peptide panel
[2] = molecular target: T3, recombinant human IL-18 (rhIL-18) (human, UniProt Q14116 37-193, biotinylated (D-biotinyl-epsilon-aminocaproic acid NHS ester, 2:1 molar ratio of biotin to rhIL-18) in the BIAcore assay; not said to be biotinylated in the KG-1 assay); assay: SPR (BIAcore), biotinylated rhIL-18 on streptavidin chip, antibody in solution
T3 construct: also called full length human IL-18; biotinylated rhIL-18
Protocol: Real-time binding interactions between ligand (biotinylated recombinant human IL-18 (rhIL-18) immobilized on a biosensor matrix) and analyte (antibodies in solution) were measured by surface plasmon resonance (SPR) using the BIAcore system (Pharmacia Biosensor, Piscataway, N.J.). The system utilizes the optical properties of SPR to detect alterations in protein concentrations within a dextran biosensor matrix. Proteins are covalently bound to the dextran matrix at known concentrations. Antibodies are injected through the dextran matrix and specific binding between injected antibodies and immobilized ligand results in an increased matrix protein concentration and resultant change in the SPR signal.
Biotinylated rhIL-18 to be immobilized on the matrix via streptavidin was diluted in PBS running buffer (Gibco Cat. No. 14190-144, Gibco BRL, Grand Island, N.Y.) supplemented with 0.05% (BIAcore) surfactant P20 (Pharmacia BR-1000-54, Pharmacia Biosensor, Piscataway, N.J.). To determine the capacity of rhIL-18-specific antibodies to bind immobilized rhIL-18, a binding assay was conducted as follows. Aliquots of biotinylated rhIL-18 (25 nM; 10 μl aliquots) were injected through the streptavidin-coupled dextran matrix at a flow rate of 5 μl/min. Before injection of the protein and immediately afterward, PBS buffer alone flowed through each flow cell. The net difference in signal between baseline and approximately 30 sec. after completion of biotinylated rhIL-18 injection was taken to represent the binding value. Direct rhIL-18-specific antibody binding to immobilized biotinylated rhIL-18 was measured. Antibodies (20 μg/ml) were diluted in PBS running buffer and 25 μl aliquots were injected through the immobilized protein matrices at a flow rate of 5 μl/min. Prior to injection of antibody, and immediately afterwards, PBS buffer alone flowed through each flow cell. The net difference in baseline signal and signal after completion of antibody injection was taken to represent the binding value of the particular sample. Biosensor matrices were regenerated using 100 mM HCl before injection of the next sample.

[3] = molecular target: T3, recombinant human IL-18 (rhIL-18); assay: cell-based or functional assay
[4] = molecular target: T2, IL-18 peptide PLFEDMTDSDCRDNA (SEQ ID …); assay: told in a figure legend; 2E1 selected by phage display on an IL-18 peptide epitope
[5] = molecular target: T3, recombinant human IL-18 (rhIL-18); assay: cell-based or functional assay; remark: listed apart in the source
[6] = molecular target: T3, recombinant human IL-18 (rhIL-18); assay: SPR (BIAcore), biotinylated rhIL-18, scFv
[7] = molecular target: T3, recombinant human IL-18 (rhIL-18); assay: SPR (BIAcore), biotinylated rhIL-18 on streptavidin chip

| Binder | IC50 Value, KG-1 cell-based IL-18 neutralization assay (hIFN-gamma) [3] [nM] | koff [2] [s⁻¹] | further results |
| --- | --- | --- | --- |
| 2E1 mutant L34S (scFv, V domains shown) VH: QVQLVQSGAEVKKPGASMKVSCKTSGYTFTGYYIHWVRQAHGQGFEWIGRLNPTTGDANFAEKFQGRVALTRDTSISTAYLQLDSLKSDDTAVYYCAGKEGAWGQGTLVTVSS VL: SSELTQDPAVSVALGQTVRITCQGDSLRHFYPSWYQQKPGQAPVLVIYGKNNRPSGIPDRFSGSGSGNTGSLTITGAQAEDEADYYCGSRDSSGIHVVFGGGTKVTVLG | 15 | 0.000169 | – |
| 2E1 mutant L34S + H53R (2E1RS) (scFv, V domains shown) VH: QVQLVQSGAEVKKPGASMKVSCKTSGYTFTGYYIHWVRQAHGQGFEWIGRLNPRTGDANFAEKFQGRVALTRDTSISTAYLQLDSLKSDDTAVYYCAGKEGAWGQGTLVTVSS VL: SSELTQDPAVSVALGQTVRITCQGDSLRHFYPSWYQQKPGQAPVLVIYGKNNRPSGIPDRFSGSGSGNTGSLTITGAQAEDEADYYCGSRDSSGIHVVFGGGTKVTVLG | 3 | 6.82e-05 | Kd [2]: 23 nM; kon [2]: 2700 M⁻¹ s⁻¹; fold improvement over the parent antibody 2E1, KG-1 cell-based assay [5]: > 10 fold; fold improvement over the parent antibody 2E1 [6]: > 10 fold; fold improvement over the parent antibody 2E1 (BIAcore analysis) [7]: > 10 fold |
| 2E1 mutant H53R (scFv, V domains shown) VH: QVQLVQSGAEVKKPGASMKVSCKTSGYTFTGYYIHWVRQAHGQGFEWIGRLNPRTGDANFAEKFQGRVALTRDTSISTAYLQLDSLKSDDTAVYYCAGKEGAWGQGTLVTVSS VL: SSELTQDPAVSVALGQTVRITCQGDSLRHFYPNWYQQKPGQAPVLVIYGKNNRPSGIPDRFSGSGSGNTGSLTITGAQAEDEADYYCGSRDSSGIHVVFGGGTKVTVLG | 25 | 0.00234 | – |
| 2E1 mutant L34S + H53R + H58Q (scFv, V domains shown) VH: QVQLVQSGAEVKKPGASMKVSCKTSGYTFTGYYIHWVRQAHGQGFEWIGRLNPRTGDAQFAEKFQGRVALTRDTSISTAYLQLDSLKSDDTAVYYCAGKEGAWGQGTLVTVSS VL: SSELTQDPAVSVALGQTVRITCQGDSLRHFYPSWYQQKPGQAPVLVIYGKNNRPSGIPDRFSGSGSGNTGSLTITGAQAEDEADYYCGSRDSSGIHVVFGGGTKVTVLG | 2.8 | 6.18e-05 | – |
| 2E1 (parent) IgG (antibody, V domains shown) VH: QVQLVQSGAEVKKPGASMKVSCKTSGYTFTGYYIHWVRQAHGQGFEWIGRLNPTTGDANFAEKFQGRVALTRDTSISTAYLQLDSLKSDDTAVYYCAGKEGAWGQGTLVTVSS VL: SSELTQDPAVSVALGQTVRITCQGDSLRHFYPNWYQQKPGQAPVLVIYGKNNRPSGIPDRFSGSGSGNTGSLTITGAQAEDEADYYCGSRDSSGIHVVFGGGTKVTVLG | 0.9 | – | – |

Continued, in another order:

| IC50 Value, KG-1 cell-based IL-18 neutralization assay (hIFN-gamma) [3] [nM] | koff [2] [s⁻¹] | Binder | further results |
| --- | --- | --- | --- |
| 33 | – | 2E1 (parent) ScFv (scFv, V domains shown, Tested as single-chain Fv; also called single chain Fv version of antibody 2E1; 2E1 single chain antibody) VH: QVQLVQSGAEVKKPGASMKVSCKTSGYTFTGYYIHWVRQAHGQGFEWIGRLNPTTGDANFAEKFQGRVALTRDTSISTAYLQLDSLKSDDTAVYYCAGKEGAWGQGTLVTVSS VL: SSELTQDPAVSVALGQTVRITCQGDSLRHFYPNWYQQKPGQAPVLVIYGKNNRPSGIPDRFSGSGSGNTGSLTITGAQAEDEADYYCGSRDSSGIHVVFGGGTKVTVLG | binding result [1]: binds; kon [2]: 2600 M⁻¹ s⁻¹; binding result [4]: binds |
| 6.7 | 5.28e-05 | 2E1 mutant L34S + H53Y (scFv, V domains shown) VH: QVQLVQSGAEVKKPGASMKVSCKTSGYTFTGYYIHWVRQAHGQGFEWIGRLNPYTGDANFAEKFQGRVALTRDTSISTAYLQLDSLKSDDTAVYYCAGKEGAWGQGTLVTVSS VL: SSELTQDPAVSVALGQTVRITCQGDSLRHFYPSWYQQKPGQAPVLVIYGKNNRPSGIPDRFSGSGSGNTGSLTITGAQAEDEADYYCGSRDSSGIHVVFGGGTKVTVLG | – |
